Data: patent US20050164185A1 (YEDA RESEARCH AND DEVELOPMENT CO LTD AT WEIZMANN INSTITUTE …, published 2005)

B2: interferon beta (wild type, glycosylated, produced in CHO) (ligand, human, UniProt P01574 22-187, looked up)
chain: MSYNLLGFLQRSSNFQCQKLLWQLNGRLEYCLKDRMNFDIPEEIKQLQQFQKEDAALTIYEMLQNIFAIFRQDSSSTGWNETIVENLLANVYHQINHLKTVLEEKLEKEDFTRGKLMSSLHLKRYYGRILHYLKAKEYSHCAWTIVRVEILRNFYFINRLTGYLRN
modifications: glycosylated (site not stated)
notes: also called IFNβ; IFN-β

Tests used:
[1] = molecular target: B2; assay: RifS, IFNAR2-EC immobilised through antibodies
[2] = molecular target: B2; assay: RifS, IFNAR2-EC immobilised through antibodies, 500 mM NaCl, pH 7.4
[3] = molecular target: T1, wild type IFNAR2-EC (extracellular domain of human IFNAR2) (human, UniProt P48551 28-237); assay: as above
T1 construct: Expressed in E. coli, non-glycosylated; also called wt; WT protein
T1 sequence: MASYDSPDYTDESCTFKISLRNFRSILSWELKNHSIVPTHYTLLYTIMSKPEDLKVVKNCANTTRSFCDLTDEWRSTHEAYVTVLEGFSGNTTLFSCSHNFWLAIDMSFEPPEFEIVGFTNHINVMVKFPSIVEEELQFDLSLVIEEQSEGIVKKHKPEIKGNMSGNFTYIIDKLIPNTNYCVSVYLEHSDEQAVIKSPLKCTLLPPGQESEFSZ

[4] = molecular target: B2; assay: cell-based or functional assay

B1: IFNAR2 EC H78A/N100A mutant (receptor)
chain: MASYDSPDYTDESCTFKISLRNFRSILSWELKNHSIVPTHYTLLYTIMSKPEDLKVVKNCANTTRSFCDLTDEWRSTAEAYVTVLEGFSGNTTLFSCSHAFWLAIDMSFEPPEFEIVGFTNHINVMVKFPSIVEEELQFDLSLVIEEQSEGIVKKHKPEIKGNMSGNFTYIIDKLIPNTNYCVSVYLEHSDEQAVIKSPLKCTLLPPGQESEFSZ
notes: also called R2 H78A/N100A; MIFNAR2 EC
- fold higher affinity than wild type [1]: ~100 fold
- Kd [2]: ~30 pM

Binder: B2
- Kd [3]: ~3000 pM

B3: IFNAR2 EC H78A/N100D mutant (receptor)
chain: MASYDSPDYTDESCTFKISLRNFRSILSWELKNHSIVPTHYTLLYTIMSKPEDLKVVKNCANTTRSFCDLTDEWRSTAEAYVTVLEGFSGNTTLFSCSHDFWLAIDMSFEPPEFEIVGFTNHINVMVKFPSIVEEELQFDLSLVIEEQSEGIVKKHKPEIKGNMSGNFTYIIDKLIPNTNYCVSVYLEHSDEQAVIKSPLKCTLLPPGQESEFSZ
- IC50 (read off the curve) [4]: ~400 pM
